According to patent US20230045262A1 (Hoffmann-La Roche, published 2023):
Read-outs that look alike come from different tables or passages of the source. One block for each binder: values may come before it.

Columns and labels:
[1] = molecular target: T1, human 4-1BB on cells (activated human T cells; HeLa-hu4-1BB-NFκB-luc clone 26; Jurkat-hu4-1BB-NFκB-luc2) (human, UniProt Q07011 24-255); assay: cell-based or functional assay
human CEA on MKN45 cells = molecular target: T2, human CEA on MKN45 cells (human, UniProt P06731 35-685); assay: flow cytometry on MKN45 cells
T2 construct: Natural on the human gastric cancer cell line MKN45; also called cell-expressed CEA; CEACAM5
T2 sequence: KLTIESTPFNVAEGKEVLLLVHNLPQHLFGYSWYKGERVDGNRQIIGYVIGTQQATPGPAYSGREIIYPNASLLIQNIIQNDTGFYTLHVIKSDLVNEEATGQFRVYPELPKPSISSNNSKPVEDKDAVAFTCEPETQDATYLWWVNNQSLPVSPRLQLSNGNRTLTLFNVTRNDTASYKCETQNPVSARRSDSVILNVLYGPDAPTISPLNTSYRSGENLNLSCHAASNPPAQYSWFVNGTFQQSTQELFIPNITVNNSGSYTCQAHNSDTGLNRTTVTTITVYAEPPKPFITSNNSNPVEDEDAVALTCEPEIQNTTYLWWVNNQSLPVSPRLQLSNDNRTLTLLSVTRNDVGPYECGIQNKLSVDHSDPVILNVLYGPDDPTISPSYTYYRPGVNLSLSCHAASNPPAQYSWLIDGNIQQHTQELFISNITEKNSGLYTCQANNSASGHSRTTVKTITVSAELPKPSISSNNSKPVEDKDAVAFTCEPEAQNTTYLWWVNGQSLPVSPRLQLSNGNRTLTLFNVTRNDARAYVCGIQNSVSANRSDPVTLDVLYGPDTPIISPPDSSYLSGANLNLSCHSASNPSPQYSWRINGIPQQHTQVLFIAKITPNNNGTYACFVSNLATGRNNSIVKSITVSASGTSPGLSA

[2] = molecular target: T1, human 4-1BB on cells (activated human T …); assay: flow cytometry on Jurkat-hu4-1BB-NFκB-luc2 cells
[3] = molecular target: T1, human 4-1BB on cells (activated human T …); assay: cell-based or functional assay; remark: listed apart in the source
[4] = molecular target: T1, human 4-1BB on cells (activated human T …); assay: flow cytometry on activated human CD8+ T cells, PE anti-human Fc secondary
[5] = molecular target: T1, human 4-1BB on cells (activated human T …); assay: flow cytometry on activated human CD4+ T cells, PE anti-human Fc secondary
[6] = molecular target: T1, human 4-1BB on cells (activated human T …); assay: cell-based or functional assay; remark: listed apart in the source
[7] = molecular target: T3, hu4-1BB-SNAP fusion on Hek293 EBNA cells (human, UniProt Q07011 24-255, labeled with the FRET donor Terbium); assay: TagLite FRET competition on hu4-1BB-SNAP cells; competitor 0.6 nM d2-labelled 20H4.9 IgG; 4 h
T3 construct: also called hu 4-1BB (TagLite); not shown: SNAP tag

[8] = molecular target: T3, hu4-1BB-SNAP fusion on Hek293 EBNA cells; assay: as above; remark: listed apart in the source
[9] = molecular target: T4, human FAP on cells (WM-266-4; NIH/3T3-huFAP clone 19) (human, UniProt Q12884 1-760); assay: flow cytometry on WM-266-4 and NIH/3T3-huFAP clone 19 cells
T4 construct: transfected in NIH/3T3-huFAP clone 19

EC50 of Jurkat-hu4-1BB-NFκB-luc2 reporter cell line activation curves in the presence of CEA-expressing MKN45 tumor cells [1]: 30 pM
EC50 (human CEA on MKN45 cells): 8900 pM
EC50 [2]: 10 pM
B1: 2+1 4-1BB (20H4.9)/CEA(A5B7) human IgG1 PGLALA (G4S)2, hole VH (bispecific antibody)
heavy 1: QVQLQQWGAGLLKPSETLSLTCAVYGGSFSGYYWSWIRQSPEKGLEWIGEINHGGYVTYNPSLESRVTISVDTSKNQFSLKLSSVTAADTAVYYCARDYGPGNYDWYFDLWGRGTLVTVSSASTKGPSVFPLAPSSKSTSGGTAALGCLVKDYFPEPVTVSWNSGALTSGVHTFPAVLQSSGLYSLSSVVTVPSSSLGTQTYICNVNHKPSNTKVDKKVEPKSCDKTHTCPPCPAPEAAGGPSVFLFPPKPKDTLMISRTPEVTCVVVDVSHEDPEVKFNWYVDGVEVHNAKTKPREEQYNSTYRVVSVLTVLHQDWLNGKEYKCKVSNKALGAPIEKTISKAKGQPREPQVCTLPPSRDELTKNQVSLSCAVKGFYPSDIAVEWESNGQPENNYKTTPPVLDSDGSFFLVSKLTVDKSRWQQGNVFSCSVMHEALHNHYTQKSLSLSPGGGGGSGGGGSEVQLVESGGGLVQPGRSLRLSCAASGFTVSSYWMHWVRQAPGKGLEWVGFIRNKANGGTTEYAASVKGRFTISRDDSKNTLYLQMNSLRAEDTAVYYCARDRGLRFYFDYWGQGTTVTVSS
heavy 2: not shown
light: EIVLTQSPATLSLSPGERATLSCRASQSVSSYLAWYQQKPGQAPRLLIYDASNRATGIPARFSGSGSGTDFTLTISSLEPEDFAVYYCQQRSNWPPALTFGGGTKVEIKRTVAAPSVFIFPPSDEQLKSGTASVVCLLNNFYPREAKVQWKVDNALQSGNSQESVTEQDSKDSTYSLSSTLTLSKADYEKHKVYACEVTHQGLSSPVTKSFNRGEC
notes: also called 4-1BB (20H4.9)×CEA (A5B7) 2+1; 4-1BB (20H4.9)×CEA (A5B7) 2+1 (G4S)2

EC50 of human PBMC activation curves, % CD25+ CD4 (with NIH/3T3-huFAP cells and anti-CD3) [3]: 100 pM
EC50 [4]: 100 pM
EC50 [5]: 100 pM
EC50 of activation of the NFκB signaling pathway (luciferase, HeLa-hu4-1BB-NFκB-luc), no FAP+ cells [6]: 1070 pM
EC50 of activation of the NFκB signaling pathway (luciferase, HeLa-hu4-1BB-NFκB-luc), with 3T3-huFAP cells [6]: 2170 pM
EC50 of activation of the NFκB signaling pathway (luciferase, HeLa-hu4-1BB-NFκB-luc), with WM-266-4 cells [6]: 640 pM
EC50 of Jurkat-hu4-1BB-NFκB-luc2 reporter cell line activation curves in the presence of CEA-expressing MKN45 tumor cells [1]: 20 pM
EC50 [7]: 1500 pM
EC50 interval [7]: 900 to 2400 pM
EC50 [8]: 1500 pM
EC50 interval [8]: 900 to 2500 pM
binding result [9]: no binding
B2: 4-1BB (20H4.9) huIgG1 P329G LALA (antibody, V domains shown)
VH: QVQLQQWGAGLLKPSETLSLTCAVYGGSFSGYYWSWIRQSPEKGLEWIGEINHGGYVTYNPSLESRVTISVDTSKNQFSLKLSSVTAADTAVYYCARDYGPGNYDWYFDLWGRGTLVTVSS
VL: EIVLTQSPATLSLSPGERATLSCRASQSVSSYLAWYQQKPGQAPRLLIYDASNRATGIPARFSGSGSGTDFTLTISSLEPEDFAVYYCQQRSNWPPALTFGGGTKVEIK
notes: rest is human IgG1 with P329G, L234A, L235A; In the FRET assay the same IgG, labelled with d2, is the tracer; also called 20H4.9 IgG; anti-4-1BB (20H4.9) huIgG1 P329G LALA
